Measured values as given in publication PMC10858868, “TFIP11 promotes replication fork reversal to preserve genome stability”.

T1: TFIP11 (UniProt Q9UBB9 1-837)
T1 sequence: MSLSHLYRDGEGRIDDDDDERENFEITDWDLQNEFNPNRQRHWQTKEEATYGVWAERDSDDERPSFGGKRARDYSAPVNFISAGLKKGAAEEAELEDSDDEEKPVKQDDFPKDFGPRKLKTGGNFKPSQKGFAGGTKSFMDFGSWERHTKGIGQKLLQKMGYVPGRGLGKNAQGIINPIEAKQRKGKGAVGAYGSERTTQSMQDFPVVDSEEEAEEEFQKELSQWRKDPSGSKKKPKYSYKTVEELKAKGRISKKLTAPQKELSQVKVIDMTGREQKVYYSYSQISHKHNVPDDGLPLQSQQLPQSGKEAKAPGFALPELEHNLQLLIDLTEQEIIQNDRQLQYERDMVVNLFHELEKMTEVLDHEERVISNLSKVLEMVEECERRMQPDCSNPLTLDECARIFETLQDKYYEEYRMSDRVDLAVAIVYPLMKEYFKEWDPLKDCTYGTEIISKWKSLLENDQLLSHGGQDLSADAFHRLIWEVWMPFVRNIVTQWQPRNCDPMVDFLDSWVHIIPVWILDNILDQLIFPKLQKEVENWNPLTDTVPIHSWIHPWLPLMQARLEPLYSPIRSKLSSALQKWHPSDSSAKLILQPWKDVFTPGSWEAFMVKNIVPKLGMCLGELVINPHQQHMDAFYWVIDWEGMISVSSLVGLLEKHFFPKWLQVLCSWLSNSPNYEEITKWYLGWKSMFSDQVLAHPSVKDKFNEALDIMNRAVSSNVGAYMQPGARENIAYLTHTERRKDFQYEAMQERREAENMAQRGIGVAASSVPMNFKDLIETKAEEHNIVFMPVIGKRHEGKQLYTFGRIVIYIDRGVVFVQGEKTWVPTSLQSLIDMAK

B1: dsDNA (oligo 1 + oligo 2) (dsDNA)
DNA 1: GACGCTGCCGAATTCTACCAGTGCCTTGCTAGGACATCTTTGCCCACCTGCAGGTTCAC
DNA 2: GTGAACCTGCAGGTGGGCAAAGATGTCCTAGCAAGGCACTGGTAGAATTCGGCAGCGTC
B2: ssDNA (oligo 1) (ssDNA)
DNA: GACGCTGCCGAATTCTACCAGTGCCTTGCTAGGACATCTTTGCCCACCTGCAGGTTCAC

Biological target: T1, TFIP11
Test: EMSA; 15, 30 nM TFIP11; 0.5 nM DNA; at most about 6% bound in Source Data; EMSA: 10 mM MgCl2, 2.5% glycerol, 0.05% NP-40, 0.5 nM biotin-DNA, 20 min, room temperature (Pierce LightShift kit). Pull-down: 20 mM Tris-HCl pH 7.5, 120 mM NaCl, 0.1% Triton X-100, 2 mM CaCl2, 10 mM Mg(OAc)2, 1 mM DTT, 0.1 mg/mL BSA, 4 °C, 30 min
Conditions: protein: recombinant, tags: His-SUMO (N-terminal)

Binder	binding result (label: 5'-biotin on oligo 1, blunt)	binding result (label: 5'-biotin, single strand)
B1	no binding	
B2		no binding
